Test results from publication doi:10.1101/382838.

Molecular target: C. elegans PGL-3 N-terminal dimerization domain (NtDD), wild type (C. elegans)
Assay: SEC-MALS

stoichiometry N: 2
Substance: C. elegans PGL-3 N-terminal dimerization domain (NtDD), wild type (domain or fragment)
